± gives the standard deviation.
Test: protein stability index of a GFP-peptide fusion (GPS, HEK-293T) (PSI 1-6); higher = more stable
[1] = treatment: DMSO, c terminus: a fixed tail appended
[2] = treatment: MLN4924 1 uM, 8 h, c terminus: a fixed tail appended
[3] = treatment: DMSO, c terminus: native
[4] = treatment: MLN4924 1 uM, 8 h, c terminus: native
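Also: 24-mer peptide tiles fused after GFP, lentivirally expressed, FACS-sorted into six equal bins by GFP/DsRed ratio, decoded by Illumina sequencing, PSI is the read-weighted mean bin number.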

Row | Sequence | protein stability index [1] | protein stability index [2] | protein stability index [3] | protein stability index [4]
1 | CIGQRRFHTMDELVEHYKKAPIFT [NCK2] | 2.54 ± 0.2 | 2.65 ± 0.38 | – | –
2 | CKKGDPKHGKRKRGRPRKLSKEYW [ELF3] | 3.56 ± 0.13 | 3.85 ± 0.22 | – | –
3 | CKNSNTVYCKLESCPSRGQGKPS [SPRY1] | – | – | 3.789 ± 0.011 | 3.97 ± 0.22
4 | CKRMDLVCQRMLNQGFLKVERYHN [FBXO28] | 2.38 ± 0.29 | 2.1 ± 0.16 | – | –
5 | CKSGYHPTKSHSFRAMCQNGKLVY [CFHR2] | 2.16 ± 0.18 | 2.38 ± 0.43 | – | –
6 | CLELVSCFVLFSLTHTHTHTPNHR [ANKRD44] | 2.7 ± 0.081 | 3.55 ± 0.097 | – | –
7 | CLFSERDAAGAPRDASDPLAGAAL [SMAD6] | 4 ± 0.46 | 4.33 ± 0.2 | – | –
8 | CLLGLGSLVLILSLSYTVLIVGRI [SLC2A12] | 3.06 ± 0.48 | 3.26 ± 0.38 | – | –
9 | CLTLATAVVQLYLALPPGAEHWTK [WAS] | 2.85 ± 0.87 | 2.77 ± 0.28 | – | –
10 | CPWHYLHLSGSHNTLAPTCFKAKL [RSPH3] | 2.35 ± 0.23 | 2.59 ± 0.13 | – | –
11 | CQDSSGEVSCQCQLHPPRWYSRLQ | 2.38 ± 0.28 | 2.81 ± 0.23 | – | –
12 | CSSPGVQACSLPASCCIDPREDGA [TSPAN10] | 4.687 ± 0.023 | 4.6 ± 0.1 | – | –
13 | CSVRPDASVSSHRFFGPNAEISQP [TCF25] | 3.57 ± 0.32 | 3.73 ± 0.092 | – | –
14 | CYNCEEEAMYHCCWNTSYCSIKCQ [ZMYND11] | 2.61 ± 0.52 | 2.79 ± 0.47 | – | –
15 | DAKARKQEIIKTTEQLIEAVNNGD [CAMK2B] | 5.27 ± 0.29 | 5.26 ± 0.19 | – | –
16 | DALNAYVCKGLPQHEEICLGLFTL [INTS3] | 2.81 ± 0.64 | 2.67 ± 0.74 | – | –
17 | DANLDECIPATVRSSFANQGEICL [ALDH8A1] | 4.08 ± 0.35 | 4.19 ± 0.41 | – | –
18 | DAPLHSVGYTTLVGNNHESWGWDL [SPSB1] | 2.9 ± 0.16 | 2.85 ± 0.25 | – | –
19 | DATQEYKEKLQKCLEPLEQKLQEI [TRIM39] | 4.8 ± 0.055 | 5.02 ± 0.18 | – | –
20 | DCAGSPQKPLCASDGRTFLSRCEF [SMOC2] | 3.05 ± 0.48 | 3.27 ± 0.36 | – | –
21 | DCLQFYVNSTLKELRRLFLVQDLV [RTN1] | 2.99 ± 0.61 | 2.81 ± 0.76 | – | –
22 | DDVIVQGDIQELYDTTLALGHAAA [GLT8D2] | 4.47 ± 0.39 | 4.42 ± 0.088 | – | –
23 | DFALHYCLHHVHYLATEYLETHFR [GAN] | 3.08 ± 0.24 | 3.11 ± 0.23 | – | –

Row | Sequence | protein stability index [1] | protein stability index [2] | protein stability index [3] | protein stability index [4]
24 | DFALINKLDIQCDLKTLSDDIKES [ATE1] | 4.15 ± 0.14 | 4.18 ± 0.39 | – | –
25 | DFYRCGYCKNESGSRSNGMWAHSM [ATE1] | 2.56 ± 0.59 | 2.2 ± 0.13 | – | –
26 | DGDKNNDGRIDFDEFLKMMEGVQ [TNNC2] | – | – | 4.63 ± 0.43 | 4.54 ± 0.42
27 | DGKLRLLTKLLASKSKEEVSSLIS [FEM1C] | 2.33 ± 0.28 | 1.92 ± 0.39 | – | –
28 | DGMLYILGGEDGEKELISMECYDI [GAN] | 2.05 ± 0.18 | 2.26 ± 0.42 | – | –
29 | DIVEFVCKSGYHPTKSHSFRAMCQ [CFHR2] | 2.49 ± 0.7 | 2.09 ± 0.18 | – | –
30 | DKDDEEKPKIEDVGSDEEDDSGKD [HSP90AB1] | 5.57 ± 0.34 | 5.54 ± 0.062 | – | –
31 | DKEGHLVCRIGDWLQERYEIVGNL [CLK3] | 2.8 ± 0.56 | 2.89 ± 0.47 | – | –
32 | DKERAVLLQRRKRENMSDGDTSAT [KMT2E] | 5.27 ± 0.062 | 5.39 ± 0.19 | – | –
33 | DKLDGNELDLSLSDLNEVPVKELA [LRRC59] | 5.26 ± 0.093 | 5.34 ± 0.33 | – | –
34 | DKPLMPYMRYSRKVWDQVKASNPD [SMARCE1] | 3.27 ± 0.53 | 3.44 ± 0.17 | – | –
35 | DLALDLGPQSRELTLKVLRSSSCG [C2CD2L] | 3.28 ± 0.18 | 3.62 ± 0.34 | – | –
36 | DLEELSLGPRDAGTRGRLESAQAT [ARFIP2] | 5.14 ± 0.083 | 5.06 ± 0.1 | – | –
37 | DLSMKGGASTTSTTPSALSGEPPT [NOL4L] | 5.16 ± 0.32 | 5.28 ± 0.28 | – | –
38 | DNSTMGYMMAKKHLEINPDHPIVE [HSP90AB1] | 4.21 ± 0.21 | 4.05 ± 0.28 | – | –
39 | DNWDEKKLEEVVNKKHGEAEKKKP [ZC3H15] | 5.48 ± 0.48 | 5.75 ± 0.25 | – | –
40 | DPANCDYVIVSGAQRKEERWDMAD [YJU2B] | 4.74 ± 0.3 | 4.63 ± 0.16 | – | –
41 | DPDEEHLKKSSQVPRTEAPAPASS [PDLIM7] | 5.39 ± 0.17 | 5.5 ± 0.25 | – | –
42 | DPEDFEDAWKRPDALPGQSKRLAV [TLE6] | 5.08 ± 0.18 | 4.83 ± 0.29 | – | –
43 | DPLSLLDDSKFPIEDTPLVPVSFI [PCDHGA10] | 2.85 ± 0.49 | 2.97 ± 0.3 | – | –
44 | DPSIFTAQPNTMLGRMFGSGREHN [BTBD10] | 3.95 ± 0.27 | 3.79 ± 0.28 | – | –
45 | DPVVNGERSGCALTDAVAPGNKGR [TCF25] | 5.21 ± 0.21 | 5.32 ± 0.21 | – | –
46 | DRGDYYLEGYRDNAYKDLAWKHGN [PCMTD1] | 3.18 ± 0.2 | 3.29 ± 0.19 | – | –

Row | Sequence | protein stability index [1] | protein stability index [2] | protein stability index [3] | protein stability index [4]
47 | DSKIVVPPLPGKALKRQLPFRGDE [SNX12] | 4.35 ± 0.21 | 4.36 ± 0.1 | – | –
48 | DSLLVVLDMDEGTLSFIVDGQYLG [SPSB4] | 2.52 ± 0.53 | 2.6 ± 0.69 | – | –
49 | DSPSRSPSKVEVTEKTTTVLSESS [C2CD2L] | 5.59 ± 0.24 | 5.38 ± 0.19 | – | –
50 | DSVPFHLGWNSTERSLRLQARYHD [MYORG] | 3.59 ± 0.24 | 3.51 ± 0.17 | – | –
51 | DTAEVYAAGKAEVVLGNIIKKKGW [KCNAB2] | 3.71 ± 0.21 | 3.86 ± 0.11 | – | –
52 | DVKVGGSKYGIINLQSLKTPTLKV [DCAF4] | 2.62 ± 0.2 | 2.65 ± 0.28 | – | –
53 | DYIIRNTDRGNDNWLIKYDCPMDS [PI4K2A] | 2.81 ± 0.25 | 2.88 ± 0.12 | – | –
54 | DYPVQVAPLSNGLCCAFSTDGSVL [WSB1] | 2.66 ± 0.27 | 2.96 ± 0.32 | – | –
55 | DYPYSPPTFRFLTKMWHPNIYENG [UBE2R2] | 2.21 ± 0.41 | 2.3 ± 0.13 | – | –
56 | EAAGGDHETESTSDKETDIDDRYG [CDS1] | 5.6 ± 0.09 | 5.62 ± 0.22 | – | –
57 | EAASSSSTLVEVTLGEVPAAESPD [MAGEA3] | 5.41 ± 0.15 | 5.49 ± 0.12 | – | –
58 | EAPALPAPAAPMVSKGAESSRSSE [BRD3] | 5.56 ± 0.32 | 5.73 ± 0.25 | – | –
59 | EAQLSLIRDIRRRGKNKMAAQNCR [NFE2L1] | 3.61 ± 0.35 | 3.58 ± 0.22 | – | –
60 | EAQTSGKERLLLSAAVPAGQTYVD [CHIT1] | 4.15 ± 0.41 | 4.3 ± 0.26 | – | –
61 | EATSHYIIELLASDAGSPSLHKHL [PCDHGC5] | 2.08 ± 0.064 | 2.12 ± 0.11 | – | –
62 | EAWRLVEEGIVSPSDLDLVMSEGL [CRYL1] | 3.91 ± 0.058 | 3.9 ± 0.16 | – | –
63 | ECQLYPRRSQQQQVPVVDFQAELR [SNURF] | 4.3 ± 0.18 | 4.31 ± 0.084 | – | –
64 | EDDKLVVECVMKGVTSTRVYERA [FABP4] | – | – | 3.03 ± 0.29 | 3.75 ± 0.42
65 | EDEGVDLSEGSSNEDEDLGPCEGP [SPANXN3] | 5.39 ± 0.44 | 5.41 ± 0.23 | – | –
66 | EDSLATVKVVLIPVGQEIVIPFKV [IQUB] | 2.86 ± 1.3 | 2.43 ± 0.98 | – | –
67 | EEALENGPKESLPVIAAPSMWTRP [ACBD3] | 4.64 ± 0.12 | 4.47 ± 0.24 | – | –
68 | EEERAFWMENNGHVAGEQMLEDGP [CCDC70] | 5.37 ± 0.35 | 5.2 ± 0.45 | – | –
69 | EELAKKRFKDKSSEEAVREVHRLI [TPPP] | 3.54 ± 0.24 | 3.41 ± 0.27 | – | –

Row | Sequence | protein stability index [1] | protein stability index [2] | protein stability index [3] | protein stability index [4]
70 | EELAYLKKNHEEEMKEFSSQLAGQ [KRT15] | 5.22 ± 0.41 | 5.05 ± 0.28 | – | –
71 | EELEFQYRRVNELLLSILNPTRQD [ZER1] | 3.01 ± 0.26 | 3.04 ± 0.31 | – | –
72 | EELLWRKVYYEVIQLIKTNKKHIH [SMG5] | 2.8 ± 0.59 | 2.4 ± 0.39 | – | –
73 | EEMEEEEEEEEEEDEDDDSADMDE [FBXO3] | 5.57 ± 0.15 | 5.59 ± 0.087 | – | –
74 | EERFRPLTFHGLILRSQLVTLLVR [CLCN6] | 2.79 ± 0.63 | 2.51 ± 0.36 | – | –
75 | EERLKLSPSPSSRVTVSRASSSRS [LMNB1] | 4.94 ± 0.15 | 5.03 ± 0.25 | – | –
76 | EFLTKHLRADNAFMLLTQARLFDE [BTBD1] | 2.54 ± 0.25 | 2.18 ± 0.36 | – | –
77 | EGAVKMGMPSSLAHRIAAQTLLGT [PYCR3] | 3.08 ± 0.53 | 3.39 ± 0.17 | – | –
78 | EGSFNGSEKETMQFLNDRLASYLE [KRT33B] | 3.43 ± 0.14 | 3.34 ± 0.21 | – | –
79 | EHGATLAVIDSEKDMNFLKRYAGR [CD69] | 3.84 ± 0.34 | 3.95 ± 0.27 | – | –
80 | EIIKVTEQLIEAISNGDFESYTKM [CAMK2A] | 2.27 ± 0.53 | 1.91 ± 0.61 | – | –
81 | EKDQEQVVMNLDSRLLIFPLYICC [GMCL1] | 2.74 ± 0.75 | 2.74 ± 0.67 | – | –
82 | EKKDLKLEPPEEEIIEGNTKSHIM [NECAB1] | 5.46 ± 0.17 | 5.43 ± 0.14 | – | –
83 | EKNKHIFPASRWEPYDPEKKWDKY [FAM50A] | 3.52 ± 0.2 | 3.6 ± 0.14 | – | –
84 | EKRLEGQEEEEDNRDSSMKLSFRA [CHGA] | 5.1 ± 0.75 | 5.19 ± 0.38 | – | –
85 | EKRSRGQVLFDKVCEHLNLLEKDY [EPB41L3] | 2.87 ± 0.46 | 3.01 ± 0.62 | – | –
86 | EKSVLKEVSHPFLIRLFWTWHDER [PRKX] | 2.56 ± 0.29 | 2 ± 0.32 | – | –
87 | ELEKIGSGEFGSVFKCVKRLDGCI [WEE1] | 2.29 ± 0.25 | 2.35 ± 0.24 | – | –
88 | ELGGKNPAIIFEDANLDECIPATV [ALDH8A1] | 4.54 ± 0.28 | 4.72 ± 0.27 | – | –
89 | ELKRRVAEELALEQAKKESEDQKR [CHCHD3] | 4.14 ± 0.32 | 4.37 ± 0.082 | – | –
